B1: ATK001 (ssRNA)
RNA: GGGAGGACGAUGCGGCCACUGGCUAGGAACUCGAGUACUGGGUGGCAGACGACUCGCCCGA
modifications: 2'-F on all C and U
B2: ATK007 (ssRNA)
RNA: GCGGAAGCGUGCUGGGCCCGGCUUGCAGGUCGCCGAAAUGACCGCACACAUAACCCAGAGGUCGAU
modifications: 2'-F on all C and U

What was measured:
TNF-alpha [1] = biological target: T1, TNF-alpha (Homo sapiens, UniProt P01375 P01375:77-233); test: SPR; range given for ATK001 and ATK007 together; TNF-alpha immobilized on CM5, HBS; details: tags: recombinant human TNF-alpha (Sigma-Aldrich; biotinylated for SELEX); chain copies: 3
Description: SPR (Surface Plasmon Resonance) analysis was performed using a Biacore2000 (BIACORE, USA). A mixture of NHS (0.1 M N-hydroxysuccinimide) and DEC (0.4 M N-ethyl-N′-(dimethylaminopropyl)carbodiimide) in equal amounts (50 μL) was prepared and allowed to flow at 5 μL/min for 40 sec to thus activate a CM5 sensor chip. When 150-200 RU appeared, TNF-α protein to be immobilized was mixed with sodium acetate (pH 4.0) and allowed to flow at […]. In order to evaluate whether or not the protein was immobilized, 50 mM NaOH was allowed to flow for 5 sec. At 80° C., RNA aptamers ATK001 and ATK007 were denatured for 5 min and then restored at room temperature for 15 min, thus preparing an analyte (RNA).
(§1) In order to determine kinetics, the flow rate was changed to 30 μL/min.

ErbB3 = ErbB3 (UniProt P21860 P21860:20-643); test: SPR; specificity control; printed as about 104 nM, read as 10^4 nM (lost superscript); details: tags: ThermoFisher
Description: as §1
(§2) In order to evaluate the binding specificity of the RNA aptamer to TNF-α through SPR analysis in the same manner as in <Example 4> above, the binding capability to ErbB2 (ThermoFisher, USA) (Nucleic Acid Ther. 2011 June; 21(3):173-178), ErbB3 (ThermoFisher, USA) (Proc. Natl. Acad. Sci. USA. (2012), 109(33):13237-42) and IGF-BP1 (ThermoFisher, USA) (Insulin-like growth factor-binding protein 1) (Crit. Rev. Oncol. Hematol. (2008), 66(2):91-98), in addition to TNF-α, was quantified in Kd. The results are shown in [FIG. 5] (FIG. 5a illustrating the results of measurement of binding capability of ATK001, FIG. 5b illustrating the results of measurement of binding capability of ATK007, and FIG. 5c illustrating the results of measurement of binding capability of ATK001).

ErbB2 = ErbB2 (UniProt P04626 P04626:23-652); test: as above; details: tags: ThermoFisher
Description: as §1, §2

TNF-alpha [2] = biological target: T1, TNF-alpha; test: EMSA; 30 mM Tris-HCl pH 7.5, 150 mM NaCl, 1.5 mM MgCl2, 2 mM DTT, tRNA, room temperature; radiolabeled RNA 50 pM; details: tags: recombinant human TNF-alpha (Sigma-Aldrich; biotinylated for SELEX); chain copies: 3
Description: The single-stranded nucleic acids (50 pM) binding to TNF-α, selected in <Example 2> and labeled with radioisotopes, were reacted with TNF-α protein in a manner in which the amount of TNF-α protein was increased (ranging from 0 to 320 nM). Here, the total amount of the aptamer, TNF-α protein, binding buffer (30 mM Tris-HCl (pH 7.5), 150 mM NaCl, 1.5 mM MgCl₂, and 2 mM DTT), and […] tRNA was adjusted to 40 μL, followed by binding at room temperature for 30 min. 6×BPB was added thereto, after which electrophoresis at 4° C. and 120 V using a 6% native gel (6% polyacrylamide, 1×TBE, 10 mM MgCl₂, 2% glycerol), exposure to an X-ray film and development were performed. The dissociation constant Kd was determined by calculating the amount of the RNA aptamer binding to TNF-α relative to the total RNA aptamer.
The 4% non-denatured acrylamide gel images of the TNF-α-bound RNA aptamer (C) and the TNF-α-unbound RNA aptamer (F), resulting from reacting the radioisotope-labeled 50 pM RNA aptamer ATK001 (a) and 50 pM RNA aptamer ATK007 (b) with TNF-α in a manner in which the amount of TNF-α was increased (ranging from 0 to 320 nM), are shown in a and b of FIG. 4. The percentage of RNA binding to TNF-α was determined and is graphed in c of FIG. 4.

T1 sequence (P01375 77-233, one chain of several): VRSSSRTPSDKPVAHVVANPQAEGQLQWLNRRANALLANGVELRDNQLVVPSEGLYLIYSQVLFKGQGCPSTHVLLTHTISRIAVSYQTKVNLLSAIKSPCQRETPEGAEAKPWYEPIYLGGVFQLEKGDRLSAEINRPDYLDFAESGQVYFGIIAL
Sequence of ErbB3 (P21860 20-643, one chain of several): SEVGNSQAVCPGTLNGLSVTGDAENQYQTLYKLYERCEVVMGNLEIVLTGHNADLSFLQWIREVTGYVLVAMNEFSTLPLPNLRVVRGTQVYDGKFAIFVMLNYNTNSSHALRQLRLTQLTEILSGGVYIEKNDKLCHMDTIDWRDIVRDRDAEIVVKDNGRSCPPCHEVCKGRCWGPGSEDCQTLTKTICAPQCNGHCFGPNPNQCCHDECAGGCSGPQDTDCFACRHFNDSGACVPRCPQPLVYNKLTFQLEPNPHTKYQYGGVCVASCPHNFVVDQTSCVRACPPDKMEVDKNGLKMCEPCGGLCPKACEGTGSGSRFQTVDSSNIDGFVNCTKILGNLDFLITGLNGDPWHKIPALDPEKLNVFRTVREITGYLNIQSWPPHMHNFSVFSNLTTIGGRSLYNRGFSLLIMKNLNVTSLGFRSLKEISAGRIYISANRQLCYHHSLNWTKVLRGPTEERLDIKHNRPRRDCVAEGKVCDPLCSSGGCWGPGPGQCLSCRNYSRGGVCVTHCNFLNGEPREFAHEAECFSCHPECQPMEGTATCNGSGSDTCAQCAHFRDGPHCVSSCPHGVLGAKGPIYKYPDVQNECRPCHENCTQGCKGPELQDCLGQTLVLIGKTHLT

Binder | Kd (TNF-alpha [1]) | Kd (ErbB3) | Kd (ErbB2) | Kd (TNF-alpha [2])
B1 | 0.00529 µM | ~10 µM | ~10 µM | 
B2 | 0.00529 µM | ~10 µM | ~10 µM | ~0.005 µM
